Measured values from PMC10164081 (Structure (London, England : 1993), 2023).
Where no end group is shown, it is not given here.

T1: purified Ric-8A (rat, UniProt Q80ZG1 1-530)
T1 sequence (looked up): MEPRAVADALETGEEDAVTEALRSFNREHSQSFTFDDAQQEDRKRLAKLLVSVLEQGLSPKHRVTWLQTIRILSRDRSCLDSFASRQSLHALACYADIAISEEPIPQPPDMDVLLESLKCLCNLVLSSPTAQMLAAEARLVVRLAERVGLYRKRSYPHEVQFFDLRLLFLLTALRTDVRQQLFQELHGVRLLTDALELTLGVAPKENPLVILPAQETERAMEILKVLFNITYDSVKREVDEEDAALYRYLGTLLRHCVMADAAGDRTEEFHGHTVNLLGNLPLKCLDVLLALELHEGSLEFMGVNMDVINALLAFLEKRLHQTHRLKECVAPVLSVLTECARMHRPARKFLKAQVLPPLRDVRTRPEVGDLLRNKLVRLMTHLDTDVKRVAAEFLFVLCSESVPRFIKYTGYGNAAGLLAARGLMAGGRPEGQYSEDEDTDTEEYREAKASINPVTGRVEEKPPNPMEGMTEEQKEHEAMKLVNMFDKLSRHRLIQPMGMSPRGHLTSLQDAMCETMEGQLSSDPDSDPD


Legend:
[1] = molecular target: Gαolf/i1 SwII chimeric sensor (human); assay: cell-based or functional assay
[2] = molecular target: Gαolf/13 SwII chimeric sensor (human); assay: cell-based or functional assay
purified Ric-8A = molecular target: T1, purified Ric-8A; assay: differential scanning fluorimetry

Row | Binder | folding of the Switch II chimeric Gαolf-RLuc sensor (luminescence) by Ric-8B [1] | folding of the Switch II chimeric Gαolf-RLuc sensor (luminescence) by Ric-8B [2] [% decrease] | maximal thermal shift (ΔTm) (purified Ric-8A) [°C]
1 | phosphorylated Ric-8B (natural protein, mouse, UniProt Q80XE1-1 1-560, looked up, phosphoserine at 468, phosphothreonine at 473, and additional positions (Table S1)) MDEERALYIVRAGEAGAIERVLRDYSDKHRATFKFESADEDKRKKLCEGIFKVLVKEVPTTCQVSCLEVLRILSRDKKILVPVTTKENMQILLRLAKLHESDDSLEKVSEFPVIVESLKCLCNIVFNSQMAQQLSLELNLAAKLCNLLRKCKDRKFINDIKCFDLRLLFVLSLLHTDIRSQLRYELQGLPLLTQILESAFSIKWTDEYESAIDHNGPPLSPQETDCAIEALKALFNVTVDSWKVHKESDSHQFRVMAAVLRHCLLIVGPTEDKTEELHSNAVNLLSNVPVSCLDVLICPLTHEETAQEAATLDELPSDKTTEKDTALKNSTMVYNGMNMEAIHVLLNFMEKRIDKGSSYREGLTPVLSLLTECSRAHRNIRKFLKDQVLPPLRDVTNRPEVGSTVRNKLVRLMTHVDLGVKQIAAEFLFVLCKERVDSLLKYTGYGNAAGLLAARGLLAGGRGDNWYSEDEDTDTEEYKNAKPNINLITGHLEEPMPNPIDEMTEEQKEYEAMKLVNMLDKLSREELLKPMGLKPDGTITPLEEALSQYSVIEETSSDTD | 88 % of Gαolf | 50 | –
2 | RDVKDTILHDNLKQLMLQ-NH2 [Gα13 C-term amidated peptide] | – | – | 3.6
